Legend:
[1] = molecular target: T1, recombinant human TfR1 (human, UniProt P02786 89-760); experiment: ELISA, conjugate against unconjugated antibody
T1 construct: Recombinant huTfR1 coated on ELISA plates or used in the immunoprecipitation; also called huTfR1; hTfR1

[2] = molecular target: T2, recombinant cyno TfR1 (cynomolgus monkey (Macaca fascicularis), UniProt Q5RDH6 87-760 (Pongo abelii entry), limits assumed); experiment: ELISA, conjugate against unconjugated antibody
T2 construct: Recombinant cynoTfR1 coated on ELISA plates; also called cTfR1; cynomolgus monkey TfR1
T2 chain: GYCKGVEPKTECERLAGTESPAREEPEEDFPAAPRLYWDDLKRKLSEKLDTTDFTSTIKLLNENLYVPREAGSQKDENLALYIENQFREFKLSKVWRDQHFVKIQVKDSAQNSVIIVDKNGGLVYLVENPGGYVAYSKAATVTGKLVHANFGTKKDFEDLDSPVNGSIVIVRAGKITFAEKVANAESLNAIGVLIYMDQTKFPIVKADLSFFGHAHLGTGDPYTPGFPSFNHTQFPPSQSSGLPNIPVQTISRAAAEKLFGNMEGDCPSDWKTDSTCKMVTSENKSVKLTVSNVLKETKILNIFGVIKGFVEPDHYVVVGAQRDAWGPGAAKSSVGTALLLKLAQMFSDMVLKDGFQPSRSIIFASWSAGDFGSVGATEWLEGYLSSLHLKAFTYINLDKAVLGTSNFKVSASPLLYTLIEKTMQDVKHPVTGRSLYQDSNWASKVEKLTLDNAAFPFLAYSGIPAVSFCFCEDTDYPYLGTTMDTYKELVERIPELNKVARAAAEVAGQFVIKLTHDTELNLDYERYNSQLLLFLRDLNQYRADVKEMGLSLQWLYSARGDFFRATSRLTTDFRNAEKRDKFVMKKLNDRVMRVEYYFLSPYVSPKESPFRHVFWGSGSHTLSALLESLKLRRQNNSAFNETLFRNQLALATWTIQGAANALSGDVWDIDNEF

B1: anti-TfR (VH of SEQ ID NO: 17 and VL of SEQ ID NO: 18) conjugated to a DMPK-targeting oligonucleotide (control DMPK-ASO) (antibody, V domains shown)
VH: QVQLVQSGAEVKKPGESLKISCKGSGYSFTSYWIGWVRQMPGKGLEWMGIIYPGDSDTRYSPSFQGQVTISADKSISTAYLQWSSLKASDTAMYYCARFPYDSSGYYSFDYWGQGTLVTVSS
VL: not shown
modifications: DMPK-targeting antisense oligonucleotide linked through a cathepsin-cleavable Val-Cit linker to the ε-amine of lysine of the antibody (site and chain not stated)
notes: In the uptake assay several different DMPK-targeting oligonucleotides were used and the conjugates were also labeled with Cypher5e; also called anti-TfR in conjugates with a DMPK targeting oligo; oligonucleotide-conjugated anti-TfR
fold increase of binding upon conjugation (against unconjugated anti-TfR) [1]: 3 to 6 fold
fold increase of binding upon conjugation (against unconjugated anti-TfR) [2]: 3 to 6 fold

— US20230103793A1 (DYNE THERAPEUTICS, published 2023)
